Starred links: 1 amine or outer side, 2 acyl side, 3 side chain; linkers in the order of their positions; H or OH if unused. Non-standard residues stand in square brackets, D forms with d. pY = N[C@@H](Cc1ccc(OP(=O)(O)O)cc1)C(=O)O; Cysteamide = C(CS[*:3])N[*:1]; Dap = NC[C@H](N)C(=O)O
Target: GST-Lck-SH2 (UniProt P06239)
Test: fluorescence change on Src-catalysed phosphorylation in presence of GST-Lck-SH2 (1.25 µM peptide, 5 µM Lck-SH2, 12 nM Src, 1 mM ATP)

Sequence of GST-Lck-SH2 (P06239 127-224): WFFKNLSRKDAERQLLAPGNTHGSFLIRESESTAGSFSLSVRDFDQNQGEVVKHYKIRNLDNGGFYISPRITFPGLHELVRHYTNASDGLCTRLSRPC

- Fold change in fluorescence intensity: 0.6 fold
Binder: Ac-EEEI[pY][Dap](dapoxyl)EIEA-Cysteamide (not fully specified)

Source: patent US20060211075A1, “Enzyme sensors including environmentally sensitive or fluorescent labels and uses thereof” (The Albert Einstein College of Medicine of Yeshiva …, priority 2005, published 2006)
